Holding throughout (type): biochemical
Substrate in data set [1]: CN(C)c1ccc2c(c1)Oc1cc(N(C)C)ccc1C21OC(=O)c2cc(C(=O)NCC[C@H](NC(=O)[C@H](CC3CCCCC3)NC(=O)N3CCOCC3)C(=O)NCCNC(=O)c3ccc(-c4c5ccc(=O)cc-5oc5cc(O)ccc45)c(C(=O)O)c3)ccc21
Briefly: in vitro activity assay (fluorescence, substrate cleavage) with Papain. Conditions: other: Papain; measurement performed at pH 5.5; pH 5.5; 37.0 °C. On the procedure:
(§1) […] The substrates were solved in DMSO and added to enzyme solution with a final concentration of 50 μM.
(§2) Fluorescence was measured with an Tecan SAFIRE II spectrometer (excitation wavelength: 336 nm; emission wavelength: 490 nm; excitation band: 10.0 nm; emission band: 10.0 nm; amplification (manual): 90).

Substrate in data set [2]: CN(C)c1ccc(/N=N/c2ccc(C(=O)NCCCC[C@H](NC(=O)[C@H](CCC(=O)NCCNc3cccc4c(S(=O)(=O)O)cccc34)NC(=O)[C@H](CC3CCCCC3)NC(=O)N3CCOCC3)C(=O)O)cc2)cc1
The data set is described as above. Conditions: other: Papain; measurement performed at pH 7.5; pH 7.5; 37.0 °C. Here is the method: as §1, §2

Substrate in data set [3]: CN(C)c1ccc(/N=N/c2ccc(C(=O)NCCCC[C@H](NC(=O)[C@H](CCC(=O)NCCNc3cccc4c(S(=O)(=O)O)cccc34)NC(=O)[C@H](CC3CCCCC3)NC(=O)N3CCOCC3)C(=O)O)cc2)cc1
Briefly: in vitro activity assay (fluorescence, substrate cleavage) with Cath S. Conditions: other: Cath S, measurement performed at pH 7.5, 37.0 °C.

Substrate in data set [4]: CN(C)c1ccc2c(c1)Oc1cc(N(C)C)ccc1C21OC(=O)c2cc(C(=O)NCC[C@H](NC(=O)[C@H](CC3CCCCC3)NC(=O)N3CCOCC3)C(=O)NCCNC(=O)c3ccc(-c4c5ccc(=O)cc-5oc5cc(O)ccc45)c(C(=O)O)c3)ccc21
Briefly: in vitro activity assay (fluorescence, substrate cleavage) with Cath K. Conditions: other: Cath K; measurement performed at pH 5.5; pH 5.5; 37.0 °C. Here is the method: as §1, §2

Substrate in data set [5]: CN(C)c1ccc(/N=N/c2ccc(C(=O)NCCCC[C@H](NC(=O)[C@H](CCC(=O)NCCNc3cccc4c(S(=O)(=O)O)cccc34)NC(=O)[C@H](CC3CCCCC3)NC(=O)N3CCOCC3)C(=O)O)cc2)cc1
The description is as above. Conditions: other: Cath K; measurement performed at pH 7.5; pH 7.5; 37.0 °C. Here is the method:
as §1, §2

B1: Papain (Carica papaya) (protein)
chain: IPEYVDWRQKGAVTPVKNQGSCGSCWAFSAVVTIEGIIKIRTGNLNEYSEQELLDCDRRSYGCNGGYPWSALQLVAQYGIHYRNTYPYEGVQRYCRSREKGPYAAKTDGVRQVQPYNEGALLYSIANQPVSVVLEAAGKDFQLYRGGIFVGPCGNKVDHAVAAVGYGPNYILIKNSWGTGWGENGYIRIKRGTGNSYGVCGLYTSSFYPVKN
One may read the Km as the substrate concentration at which the rate is half of its maximum. Usually Vmax stands for the rate approached at saturating substrate. As usually defined, the kcat is the maximal rate divided by the concentration of active sites. For orientation: kcat/Km means the second-order rate constant that governs catalysis at low substrate concentration. On to B1, for which, in data set [1], the Km was determined as 6.3 µM, the Vmax is 0.0024 µmol/min and the kcat is 0.002 s⁻¹. Besides, in data set [2], the Km turned out to be 520 µM, the Vmax came out at 0.096 µmol/min, the kcat was determined as 0.1 s⁻¹ and the kcat/Km was found to be 273 M⁻¹ s⁻¹.

B2: Cath S (Homo sapiens) (protein)
chain: LPDSVDWREKGCVTEVKYQGSCGACWAFSAVGALEAQLKLKTGKLVSLSAQNLVDCSTEKYGNKGCNGGFMTTAFQYIIDNKGIDSDASYPYKAMDQKCQYDSKYRAATCSKYTELPYGREDVLKEAVANKGPVSVGVDARHPSFFLYRSGVYYEPSCTQNVNHGVLVVGYGDLNGKEYWLVKNSWGHNFGEEGYIRMARNKGNHCGIASFPSYPEI
For the protein B2, in data set [3], the Km worked out at 32 µM, the Vmax came out at 0.144 µmol/min, the kcat came out at 0.11 s⁻¹ and the kcat/Km came to 3260 M⁻¹ s⁻¹.

B3: Cath K (Homo sapiens) (protein)
chain: APDSVDYRKKGYVTPVKNQGQCGSCWAFSSVGALEGQLKKKTGKLLNLSPQNLVDCVSENDGCGGGYMTNAFQYVQKNRGIDSEDAYPYVGQEESCMYNPTGKAAKCRGYREIPEGNEKALKRAVARVGPVSVAIDASLTSFQFYSKGVYYDESCNSDNLNHAVLAVGYGIQKGNKHWIIKNSWGENWGNKGYILMARNKNNACGIANLASFPKM
In the case of B3, in data set [4], the Km is 35 µM, the Vmax turned out to be 0.438 µmol/min and the turnover number (kcat) was determined as 0.192 s⁻¹. For the same protein, in data set [5], the Km came out at 190 µM, the Vmax turned out to be 0.018 µmol/min and the kcat/Km worked out at 27 M⁻¹ s⁻¹.

These data come from patent US8771644B2, “Imaging probes” (Sanofi, priority 2007, dated 2014).
